Source: US20240075139A1

B1: 4T0578 (antibody, V domains shown)
VH: EVQLVESGGALVQPGGSLRLSCAASGFTFSRYDIHWVRQASGKGLEWVSAIGKAGDAYYAGSVRGRFTISRENAKNSLYLQMNSLRAGDTAVYYCARASFGDLYFDLWGRGTLVTVSS
VL: DIVMTQSPDSLAVSLGERATINCKSSQSLLHSSNNKNSVAWYQQKPGQPPKLLIYWASTREFGVPDRFSGSGSGTDFALTISSLQAEDVAVYVCQQYYNSPLTFGPGTKVDIK
B2: 3T0123 (antibody, V domains shown)
VH: QVQLVQSGSEVKKPGASVKVSCQASGYRFANYGISWVRQAPGQGLEWMGWISPLKRDPDYAQNFQGRVTMSRDTSTNTAYMELRGLTSGDTAVYFCARGLGDSYSNAWFVYVFDYWGQGSPVTVSS
VL: EIVMTQSPATLSVSPGERVTLSCRTSQRIHTNLAWYQQKSGQAPRLVMYDAFTRAPGVPARFSGGGSETEFTLTISSLQSEDFALYYCQQYSQRPTFGLGTKLEIK
B3: 1T0655 (antibody, V domains shown)
VH: QVQLVQSGAEVKKPGASVKVSCKASGYTFTSYYMHWVRQVPGQGLEWMGIIKAGNGGTNYAQNFQGRITVTRDTSTSTVYMELSSLRSEDTAVYYCARDRQWLPLNGYSYFNYGMDVWGQGTTVTVSS
VL: DIQMTQSPSSLSASVGDKITITCRASQSISTYLNWYQQRPGRAPKLLIFGASSLQSGVPSRFSGSGSGTVFTLSISSLQPDDFGSFYCQQSFSSPRTFGQGTKVEIK
B4: 4T0429 (antibody, V domains shown)
VH: QVQLQQWGAGLLKPSETLSLTCAVYRGSFITYYWSWVRQPPGRGLEWIGEIYKDGSASYNPSLKNRVTISLDMSKNHFSLNLDSVTAADTAVYYCARHGHTGMDVWGQGTTVTVSS
VL: QSVLTQPPSTSGTPGQRVTISCSGSSSNIGLNYVYWYQQLPGTAPKLLIYRNNQRPSGVPDRFSGSKSGTSASLAISGLRSEDEADYYCAAWDDSLSAYIFGTGTKVTVL
B5: 1T0473 (antibody, V domains shown)
VH: QVQLVQSGAEVKKPGASVKVSCKASGYTFPSYEINWVRQATGQGLEWMGWMDPKSGKTGYAQKFQGRVTMTRNPSISTAYLELSSLRSEDSAVYYCARGNQWFGELLSSYYGLDVWGQGTTVTVSS
VL: EIVLTQSPGTLSLSPGEGATLSCRASQSVSSSFLTWYHQKPGQAPRLLIYGASNRATGVPDRFSGGGSGTDFTLTISRLEPEDFGVYYCQQYGSSLITFGPGTKVDIK
B6: 3T0265 (antibody, V domains shown)
VH: EVQLVESGGNLAKPGGSLRLSCAASGFTFSDAWMTWVRQAPGKGLEWVGRIKSNADGGATEYAAPVRGRFTISRDDSRSSLFLQMNSLKTEDTAVYYCLTPPPRRYWGQGILVTVSS
VL: QSVLTQPPSVSGAPGQRVAISCTGSYSNIGAGYDVHWYQQFPGAAPKLLIYAYTNRPAGVPDRFSGSKSGSSASLVISGLQADDEADYYCQSYDARLRDGEVFGGGTKLTV
B7: 4T0570 (antibody, V domains shown)
VH: QVQLVQSGAEVKKPGASIKVSCKASGYTFVSKYIHWVRQAPGQGLEWMGIINPSGGRTDYAQKFQGRVTISRDTSTSTVYMELSSLRSEDTAFYYCARALPFRVTGARDVFDIWGQGTMVTVSS
VL: DIQMTQSPSSLSASVGDRVTITCRASQGISTNLAWFQQRPGKAPKSLVYAASTLQNGVPSKFSGSGSGTDFTLTISSLQPEDFATYYCQQYYTYPLTFGGGTKVEIK
B8: 5T0376 (antibody, V domains shown)
VH: QVQLQESGPGLVKPSETLSLTCSVSGASISTLYWSWIRQPPGKGLEWIGYMHSSGTTNYNPSLESRVTMSIDTSRNQFSLKLTSVTAADTAVYYCARGLLGPGDSWGQGTLVTVSS
VL: QSALTQPASVSGSPGQSITISCTGTSSDVGGYNYVSWYQQYPGKAPKLMIYEVTSRPSGVSNRFSGSKSGNTASLTISGLQAEDEGDYYCSSYKTGSTPVVFGGGTKLTVL
B9: 5T0180 (antibody, V domains shown)
VH: EVQLVESGGGLVKPGGSLRLSCAASGFSFGNAWMNWVRQAPGKGLEWVGRIKSKSDGGTTDYAAPVKDRFIISRDDSKKTLYLQMNSLRREDTAVYYCVRGPFYCDTCGPNDYWGQGTLVTVSS
VL: QSVLTQPPSVSGAPGQRVTISCTGSSSNIGAGYDVQWYQQLPGTAPKVLIYGNNNRPSGVPDRFSGSKSGSSASLAITGLQAEDEADYYCQTYDSRLRDQWVFGGGTKLTVL
B10: 4T0306 (antibody, V domains shown)
VH: QVQLQQSGPGLVRPSQTLSLICAISGDSVSDNNAAWNWIRQSPSRGLEWLGRTYFRSRWYNDYPESLKGRVIINPDTAENQVSLQLSSVTPGDTAVYYCVREYYDLWNGFYPGGAMDVWGQGTTVTVSS
VL: DIQLTQSPSSLSASVGDRVTITCRASQDISDFLNWFQQKPGKAPKLLIYDVSKLARGVPSRFSGSASGTDFTFTISSLQPEDIATYYCQQYDDLPRTFGQGTKLEIK
B11: 4m0368 (antibody, V domains shown)
VH: QVQLQESGPGLVKPSGTLSLTCAVSGGSISGTNWWTWVRQPPGRGLEWIGEIYYRGSPNYNPSLKSRVTISVDQSKSQFSLKLTSVTAADTAVYYCLRLSHYGGAWGQGTLVTVSS
VL: DIQLTQSPSSLSASVGDRVTITCRASQSISTYLNWYQQKPGKAPKFLIFSASNLQSGVPSRFSGGGSGTDFTLTISSLQPEDFATYYCQQTYNTPRTFGQGTKVEIK
B12: 1T0139 (antibody, V domains shown)
VH: QVQLQESGPGLVKPSETLSLTCIVSGGSLSSYYWSWVRQPAGKGLQWIGHIYTTGSTNYNPSLKSRVTMSIDTSKNQFSLRLSSVTAADTAVYYCARESYRYNAYDIHPFDYWGQGTLVTVSS
VL: SYELTQSSSVSVSPGQTASITCSGDKLGDNYVCWYQQKPGQSPTLVIYQDNRRPSGIPERFSGSNSGNTATLTIRGTQALDEADYYCQAWASNTVVFGGGTKLTVL

molecular target: EBOV Mayinga (GenBank: NC_002549) (Zaire Ebolavirus (EBOV Mayinga)) (UniProt Q05320); assay: cell-based or functional assay
UniProt Q05320, sequence (Q05320 33-676 limits assumed): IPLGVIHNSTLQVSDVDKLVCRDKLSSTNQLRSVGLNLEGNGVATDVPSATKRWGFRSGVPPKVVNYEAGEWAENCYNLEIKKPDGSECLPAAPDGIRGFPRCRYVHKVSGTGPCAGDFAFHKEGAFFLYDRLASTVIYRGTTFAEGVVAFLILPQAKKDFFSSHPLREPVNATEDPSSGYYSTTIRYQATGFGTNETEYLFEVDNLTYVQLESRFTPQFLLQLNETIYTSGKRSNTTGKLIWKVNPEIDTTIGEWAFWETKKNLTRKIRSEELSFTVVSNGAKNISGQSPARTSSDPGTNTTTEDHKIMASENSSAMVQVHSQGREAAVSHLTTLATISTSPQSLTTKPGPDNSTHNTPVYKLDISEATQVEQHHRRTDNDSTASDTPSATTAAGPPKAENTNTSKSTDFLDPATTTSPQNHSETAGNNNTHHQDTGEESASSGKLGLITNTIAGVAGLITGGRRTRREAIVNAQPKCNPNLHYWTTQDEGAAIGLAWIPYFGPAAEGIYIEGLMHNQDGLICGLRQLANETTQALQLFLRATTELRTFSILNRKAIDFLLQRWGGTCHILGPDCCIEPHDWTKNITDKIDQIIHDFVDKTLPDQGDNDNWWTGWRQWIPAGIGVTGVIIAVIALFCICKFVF

Molecule | neutralization concentration (GMC, CPE reduction on Vero C1008 cells) [µg/mL]
mAb114 (antibody) | 0.744

molecular target: EBOV Mayinga (GenBank: NC_002549) (Zaire Ebolavirus (EBOV Mayinga)) (UniProt Q05320); assay: cell-based or functional assay; remark: another data set of the same source

Molecule | neutralization concentration (GMC, CPE reduction on Vero C1008 cells) [µg/mL]
B1 | 0.45
B2 | 0.52
B3 | 0.08
B4 | 35
B5 | 2.63
B6 | 0.44
B7 | 0.09
B8 | 12.5
B9 | 12.5
B10 | 100
B11 | 0.13
B12 | 7.44
